Assay results as given in the DeepSol protein solubility set.

assay: soluble on expression in E. coli; label from the status in PepcDB or PDB records

Soluble on expression in E. coli, not soluble:
MGSDKIHHHHHHMSELSQLSPQPLWDIFAKICSIPHPSYHEEALAAHILEWAKEKGIYAERDQVGNILLRKAATAGMENRKPVVLQAHLDMVPQKNNDTVHDFTTDPIQPYVDGEWLKARGTTLGADNGIGMASALAVLADPSVEHGPLEVLLTMTEEAGMDGAFGLQPNWLQGEILINTDSEEEGEIYMGCAGGIDFITRLPLVREVPPAGYQTLKLTIKGLKGGHSGGDIHLGLGNANKLLARFLFEQAEALDIRILDLNGGTLRNAIPREAFATLSLPAANVEQLKTLSQDYLAVLKNELSAVEKNLTVLVEANDSNEHPLTQDSRDRLLGLLNATPNGVIRMSDDVKGVVETSLNLGVVTMEDDHAEIICLIRSLIDSGKDAVVGTLTALGQLAGAKTSPKGGYPGWQPDAHSPVMALVRETYQKQFNKTPNIMVIHAGLECGLFKKPYPDMDMVSIGPTITGPHSPDEQVHIGSVDLYWKLLTELLKAIPPRA, MGSDKIHHHHHHMSEPLRIIHGAFGRVALLLLDRTMAVHAHRVCHVVFKIGGVDILFGVRELEHYLSDDNVLLVNAWEPHFYNHNRDAPSTVLLALYLEPQWLRKVDTRFSCSAHPKFFSQPILALGSKLAGLRADLLDLLTGRESTGSRVVEDLIVRTIIELACVGTRWKELLECQLMGSLAYDARIRQSLDEMKSRGGVALDFDEIASSVGLSRPHFFHLFRKQIGMTPATFGSMLRMEASIDSLAATDTAIHDIARHLGFDSPGNFTRFFLCQQGVTPSQYRRKVEFTTLTCS, MGSDKIHHHHHHMSFDRPEIYSAPVLQGESPNDDDNTEIIKSFKNFILEFRLDSQFIYRDQLRNNILVKNYSLTVNMEHLIGYNEDIYKKLSDEPSDIIPLFETAITQVAKRISILSRAQSANNNDKDPENTSMDTDSLLLNSLPTFQLILNSNANQIPLRDLDSEHVSKIVRLSGIIISTSVLSSRATYLSIMCRNCRHTTSITINNFNSITGNTVSLPRSCLSTIESESSMANESNIGDESTKKNCGPDPYIIIHESSKFIDQQFLKLQEIPELVPVGEMPRNLTMTCDRYLTNKVIPGTRVTIVGIYSIYNSKNGAGSGRSGGGNGGSGVAIRTPYIKILGIQSDVETSSIWNSVTMFTEEEEEEFLQLSRNPKLYEILTNSIAPSIFGNEDIKKAIVCLLMGGSKKILPDGMRLRGDINVLLLGDPGTAKSQLLKFVEKVSPIAVYTSGKGSSAAGLTASVQRDPMTREFYLEGGAMVLADGGVVCIDEFDKMRDEDRVAIHEAMEQQTISIAKAGITTVLNSRTSVLAAANPIYGRYDDLKSPGDNIDFQTTILSRFDMIFIVKDDHNEERDISIANHVINIHTGNANAMQNQQEENGSEISIEKMKRYITYCRLKCAPRLSPQAAEKLSSNFVTIRKQLLINELESTERSSIPITIRQLEAIIRITESLAKLELSPIAQERHVDEAIRLFQASTMDAASQDPIGGLNQASGTSLSEIRRFEQELKRRLPIGWSTSYQTLRREFVDTHRFSQLALDKALYALEKHETIQLRHQGQNIYRSGV, MGSDKIHHHHHHMSFELHPRYLEVHLHGRLCGFLCEAGGNTRFVPTDEYRGDNERYTLSLSITLPTEIGREATSAVFDNAFHPAIYNTGGELPPYFAGLLPEGELRKRLESTRTNPEDKDDFGVLASAGNDLPGAIVVKPADVRALPGYVRTYGVTGGADNLEIAVVEGATEGAASVSGVQNKLALSTMRKGERYTLPTKGKVSDIIAKLPAKNDDSQVFNEYVSMHLAAAAGVNIAPIQVLPMSSIDVPDLADLMGKGLHYLAVERFDRAADGGLLHAEDGCQMLGRMPNRKYAKREEYIRLLAALYRLSPKGFENVRQFFLRQAVNTLIGNSDAHLKNFSVIYRDRKLPELSPAYDIVCVAALPNFTSYGQNVAIDEIQRKETMDLYEDIADKAGIPRRIATAAVKEAVSMAHAHWPGLLEKMGASQALRDVIAERLENLPLAKVGRPTRKGA, MGSDKIHHHHHHMSFFKTPLIGLKADSFRHPLDLEATKTLKQIPGIDMLVRNWLGPMAEQVFYVENIASSILVGEKQLPDLYKLLLDACEILDIEPPQLYVRQHPAPNAYTFAVRGKQPFVVLHTSLIDILTPEEIQAVIAHELGHLKCDHSVYLTPVNLLILAAAIVPNVGTFVAQAIQAQLLEWVRCAEFTCDRAALLATQDPKVVMSVLMKLAGGSPTLAPQLNLDAFVAQARAYDDISKTELGEMVKTARTAQLTHPVPVLRAREIDRWASSTEYQSLIQSHGLKSTSKEVAPKGGWRNW, MGSDKIHHHHHHMSFYIYGILTLPAPQNLNLEGLDRQPVQIKILDDFAVIYSEAQQERYLASRRNLLSHEKVLEEIMQAGDRYLLPVQFGLLVSSWETVSQQLIRPHQEELTQLLAKLSGCREVSVKVFWDTEAEIQGLLAEHPNLKTERDKLVGQPLSMERVIQIGQVIEQGMSDRKQGIIDVFKGTLNSIAIEVVENTPQVDTMIYNSAYLIPWEAESQFSEHVESLDRQFENRLRIRYNNFTAPYNFARLRLTTSN, MGSDKIHHHHHHMSGAKVISVMNWKGGVGKTTMTHHLGTGLHMLTKEERLEYLGSEKMPRILFVDNDAQCNLSISCLHVEKYEDLVYKQNIPTIYDLYKLFICNESPVVDMHNYIIKNQVRMDNRRIFMGMDLLPAHQELVYLDMNIAMNSRASFQSGLISKEIYKYQYLNDILEPVCSDYDYIFIDCPPNLGYTTLNALYASEYCLIPTGLDHLSSYGIASLLKEIDRLNTEFATAVPDHPMIEVVGIVANNVEENREAPKRSQKLIRERLQDSYHELMFEPYLTRGDGIPNASEQGYPVYADRSANALKQGDLLLGILREFLDRI, MGSDKIHHHHHHMSHGAIKHHRHRGRVMYHLRVPESAEDLDAYYQFRWEMLRKPLHQPLGSERDAYDALAHHQTVVDEQGRLVAIGRLSINADNEAAIRFLAVHPDLRGKGLGTLLAITLESVARQEGVKRVVCSAREDAMDFFSKLGFVNQGEISAPQTTPVRHFLMIKPVATLDDILHRADWCGQLQQAWYDHIPLSEKMGVRISQYTGKKFITTMPEAGNQNPHHTLFAGSMFSLATLTGWGLIWLLLRERHLGGTIILADAHIRYSTPVSGRPSAIADLGSLSGDLDRLARGRKARVQLNVELFGDDNKGALFEGVYIVLPAQPDAPLEEGGSEVD, MGSDKIHHHHHHMSHPEPYFQCNDPALSPAERANWIAVLPLGAHEQHGPHLPFETDTIIAQGVVDRLILALPDTLPVTFLPVEPVGYSVEHMDVFGTRTLTFNEAVERWLGIAETLSGQGIRKLMMLNAHGGNSPLMTVVATEARIRFSMLAVATSWTRFGQPDGLIRPEDKAIDIHGGDIETSVMLALRPDLVAMDKAQNFSSRQSEFAARFTHLRAYGPHAFGWKMADLNPLGVAGNASVATAEKGENLLSHAVHGLVELLWDIHDFDIEKAFELPPHSSYMG, MGSDKIHHHHHHMSHSTDLSALARWMAADFSNQAQAFENPPFYAHIRVAIRPLDQAKFGDRLLFLEQAYDFMLQRPYRLRVLKLKVVEDHIEIENFKVKDEEKFYGAARDLGKLAQLTPADLEPMHGCDMIVEWTGTSFKGEVQPGRQCRVMRDGKETYLENSFEVSETGLISLDRGYDPETNERVWGSVAGAFHFVRWQSFADEVSF, MGSDKIHHHHHHMSIAPFLEAAGWAEATATPLAGDASSRRYTRLSRGAETAVLMQAPVATKADHASFDAFRKIGAHLRGQNLSAPKEYAADPTNGLILMEDLGDQTLARLLKDDAQTAQIAYNATANLLPHLKVHAPPHLAAPDARAMAQMVALTFDQLPDSAILRDTLLEALAEALTTHAPGAPTLSLRDVHAENLLWLPDRDGPARVGLLDFQDALLLPEGYDLASLLDDPRREVPEVWRADLIAAHSAPTRIAVLSLQRNLRILGIFRRLSTTLGKPAYGAFLPRTRTLIARAASDLPPMLAPVTELLDRTAHWTAP
